This is an account of results in patent US20240002540A1.

Experiment [1] concerns the target human CD3 on T cells (Jurkat cells; human peripheral blood CD4+ and CD8+ T-cells) (human) (UniProt P07766). The experiment in a line: flow cytometry on Jurkat cells. On the technique in general: A flow cytometer gives signals particle by particle.
Experiment [2] has as its target FcγRI recombinant protein, His-tagged (UniProt P12314). The experiment in a line: SPR (Biacore), His-tagged receptor captured by anti-His antibody on CM5 chip, antibody as analyte. A general note: SPR reads the build-up and loss of mass on a sensor chip optically.

Sequence of FcγRI recombinant protein, His-tagged (P12314 16-288 limits assumed): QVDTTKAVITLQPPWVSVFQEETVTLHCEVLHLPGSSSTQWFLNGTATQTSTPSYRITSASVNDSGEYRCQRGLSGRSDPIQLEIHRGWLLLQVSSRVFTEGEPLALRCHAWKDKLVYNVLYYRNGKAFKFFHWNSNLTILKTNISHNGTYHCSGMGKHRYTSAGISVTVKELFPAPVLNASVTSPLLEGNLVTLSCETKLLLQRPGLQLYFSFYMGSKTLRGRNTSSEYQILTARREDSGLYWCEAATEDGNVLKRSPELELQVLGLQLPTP

For the substance OKT3-hIgG1 (antibody), the affinity, FACS (Jurkat) in experiment [1] was determined as 0.27 nM. As usually defined, the Kd is the concentration at which binding is half-saturated. Take IgG4 isotype control (antibody): the Kd in experiment [2] stood at 14 nM.
